Data: US20260242478A1 (published 2026)

B1: Phage-999 (peptide)
peptide: YCDGHNGVYWWKCI
notes: tested as crude clonal phage supernatant
B2: Phage-998 (peptide)
peptide: YCEGHLGQYMEKCL
notes: as for B1
B3: Phage-1000 (peptide)
peptide: YCDGHAPEYLTKCL
notes: as for B1
B4: Phage-997 (peptide)
peptide: YCEGHAPVYMFKCL
notes: as for B1
B5: Phage-968 (peptide)
peptide: YCDGHAQEFIWKCL
notes: as for B1
B6: Phage-962 (peptide)
peptide: YCEGHLPLYMDKCL
notes: as for B1
B7: Phage-959 (peptide)
peptide: YCDGHSVEYKLKCM
notes: as for B1
B8: Phage-967 (peptide)
peptide: YCAGHLDQYIEKCL
notes: as for B1
B9: Phage-963 (peptide)
peptide: YCEGHSAAYMQKCL
notes: as for B1
B10: Phage-966 (peptide)
peptide: YCDGHRLEYLEKCL
notes: as for B1
B11: Phage-964 (peptide)
peptide: YCEGHMPEYLQKCL
notes: as for B1
B12: Phage-961 (peptide)
peptide: YCAGHSPEYMQKCL
notes: as for B1
B13: Phage-957 (peptide)
peptide: YCDGHSVKYMAKCL
notes: as for B1
B14: Phage-958 (peptide)
peptide: YCSGHLPEYMWKCL
notes: as for B1
B15: Phage-960 (peptide)
peptide: YCDGHAQEYMVKCL
notes: as for B1
B16: Phage-965 (peptide)
peptide: YCDGHELQYMAKCL
notes: as for B1
B17: Phage-969 (peptide)
peptide: YCDGHSEAYMWKCL
notes: as for B1

target: T1, Anti-CD28 Fab (SEQ ID NOs: 696, 697); assay: phage ELISA; clonal phage on plate-captured anti-CD28 Fab pre-incubated with CD28 antigen as competitor
T1 construct: Biotinylated and captured on neutravidin coated plates in the phage ELISA
T1 sequence (VH, as listed by the source, chain 1 of 2): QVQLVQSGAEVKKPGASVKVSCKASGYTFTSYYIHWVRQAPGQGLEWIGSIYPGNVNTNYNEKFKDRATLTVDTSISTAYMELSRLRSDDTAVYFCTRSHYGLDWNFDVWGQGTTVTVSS
T1 sequence (VL, as listed by the source, chain 2 of 2): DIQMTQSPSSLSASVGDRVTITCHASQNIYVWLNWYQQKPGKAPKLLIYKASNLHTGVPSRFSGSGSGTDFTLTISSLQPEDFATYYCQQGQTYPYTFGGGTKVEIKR
Procedure: (§1) After panning, phage infected bacteria were plated out and colonies picked into 96 well blocks. Clonal phage was then amplified and separated from bacterial cells via centrifugation.
(§2) Clonal phage were harvested as crude supematants and screened via standard ELISAs. […] Prior to the addition of clonal phage, wells were incubated with blocking buffer and CD28 antigen or blocking buffer alone. Without washing or aspirating, clonal phage supematants were then added to the wells and incubated for a short time. Wells were then washed followed by detection of bound phage using a horse radish conjugated anti-M13 antibody. Clonal phage of interest were then sent for sequence analysis.

Going from B1 to B2, the “Phage binding ELISA, Anti-CD28 Fab signal in the presence of CD28” value rises from 0.07 to 0.08.

First: B3
Second: B4
The “Phage binding ELISA, Anti-CD28 Fab signal in the presence of CD28” value of the first is lower: 0.06 for the first, 0.08 for the second.

target: T2, Anti-CD28 Fab (SEQ ID NOs: 696, 697); assay: phage ELISA on plate-captured anti-CD28 Fab pre-incubated with CD28 antigen (competitor: CD28)
T2 construct: Biotinylated and captured on neutravidin coated plates in the phage ELISA
T2 sequence (VH, as listed by the source, chain 1 of 2): as the sequence (VH, as listed by the source, chain 1 of 2) above
T2 sequence (VL, as listed by the source, chain 2 of 2): as the sequence (VL, as listed by the source, chain 2 of 2) above
Procedure: as §1, §2

Compared with YCEGHLPQYMVKCL [Phage-977], YCEGHLGIYMTKCL [Phage-980] is higher in “Anti-CD28 Fab signal in the presence of CD28 (phage binding ELISA)” value: 0.07 for the first, 0.08 for the second.

YCEGHSVEYIGKCL [Phage-971] and YCDGHLPQYLQKCT [Phage-975] are the same in “Anti-CD28 Fab signal in the presence of CD28 (phage binding ELISA)” value: 0.07 for the first, 0.07 for the second.

First: YCDGHAEEYLLKCL [Phage-979]
Second: YCAGHSSEYIPKCL [Phage-974]
The “Anti-CD28 Fab signal in the presence of CD28 (phage binding ELISA)” value of the first is lower: 0.05 for the first, 0.09 for the second.

YCQGHADEYMAKCL [Phage-978] and YCEGHSEEFMSKCL [Phage-982] are the same in “Anti-CD28 Fab signal in the presence of CD28 (phage binding ELISA)” value: 0.08 for the first, 0.08 for the second.

Compared with YCDGHRVEYMAKCL [Phage-972], YCEGHSWEHMEKCL [Phage-973] is lower in “Anti-CD28 Fab signal in the presence of CD28 (phage binding ELISA)” value: 0.09 for the first, 0.06 for the second.

Going from YCDGHSWQYMWKCI [Phage-981] to YCDGHAKEYIQKCL [Phage-976], the “Anti-CD28 Fab signal in the presence of CD28 (phage binding ELISA)” value falls from 0.09 to 0.06.

YCEGHADEYMWKCL [Phage-970] was tested, and the “Anti-CD28 Fab signal in the presence of CD28 (phage binding ELISA)” value was 0.06.

target: T1, Anti-CD28 Fab (SEQ ID NOs: 696, 697); assay: phage ELISA; clonal phage on plate-captured biotinylated anti-CD28 Fab, anti-M13 HRP detection
Procedure: as §1, §2

First: B1
Second: B2
The “Phage binding ELISA, Anti-CD28 Fab signal” value of the first is lower: 1.53 for the first, 1.54 for the second.

Going from B3 to B4, the “Phage binding ELISA, Anti-CD28 Fab signal” value rises from 1.53 to 1.54.

target: T2, Anti-CD28 Fab (SEQ ID NOs: 696, 697); assay: phage ELISA, clonal phage on plate-captured biotinylated anti-CD28 Fab, anti-M13 HRP detection
Procedure: as §1, §2

Going from YCEGHLPQYMVKCL [Phage-977] to YCEGHLGIYMTKCL [Phage-980], the “Anti-CD28 Fab signal (phage binding ELISA)” value falls from 1.58 to 1.57.

Compared with YCEGHSVEYIGKCL [Phage-971], YCDGHLPQYLQKCT [Phage-975] is lower in “Anti-CD28 Fab signal (phage binding ELISA)” value: 1.59 for the first, 1.58 for the second.

First: YCDGHAEEYLLKCL [Phage-979]
Second: YCAGHSSEYIPKCL [Phage-974]
The “Anti-CD28 Fab signal (phage binding ELISA)” value of the first is lower: 1.57 for the first, 1.58 for the second.

Going from YCQGHADEYMAKCL [Phage-978] to YCEGHSEEFMSKCL [Phage-982], the “Anti-CD28 Fab signal (phage binding ELISA)” value falls from 1.58 to 1.57.

YCDGHRVEYMAKCL [Phage-972] and YCEGHSWEHMEKCL [Phage-973] are the same in “Anti-CD28 Fab signal (phage binding ELISA)” value: 1.58 for the first, 1.58 for the second.

Compared with YCDGHSWQYMWKCI [Phage-981], YCDGHAKEYIQKCL [Phage-976] is higher in “Anti-CD28 Fab signal (phage binding ELISA)” value: 1.57 for the first, 1.58 for the second.

With YCEGHADEYMWKCL [Phage-970] the “Anti-CD28 Fab signal (phage binding ELISA)” value was 1.59.

target: T3, Anti-CD28 Fab (SEQ ID NOs: 696, 697); assay: phage ELISA; captured anti-CD28 Fab pre-incubated with CD28 antigen as competitor, anti-M13 HRP;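 further: crude clonal phage supernatants added without washing after CD28 pre-incubation, bound phage detected with HRP anti-M13 antibody, reference wells got blocking buffer lacking CD28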
T3 construct: Biotinylated and captured on neutravidin coated plates in the phage ELISA
T3 sequence (VH, as listed by the source, chain 1 of 2): as the sequence (VH, as listed by the source, chain 1 of 2) above
T3 sequence (VL, as listed by the source, chain 2 of 2): as the sequence (VL, as listed by the source, chain 2 of 2) above
Procedure: as §1, §2

Going from YCAGHSPQYMEKCL [Phage-956] to YCDGHELKYMLKCL [Phage-952], the “Phage binding ELISA, Anti-CD28 Fab signal in the presence of CD28” value rises from 0.06 to 0.08.

Going from YCDGHLSEYMSKCL [Phage-948] to YCEGHVTEYMQKCL [Phage-949], the “Phage binding ELISA, Anti-CD28 Fab signal in the presence of CD28” value rises from 0.06 to 0.08.

Going from YCDGHSLEYIGKCL [Phage-944] to YCDGHLLEYKAKCL [Phage-953], the “Phage binding ELISA, Anti-CD28 Fab signal in the presence of CD28” value rises from 0.06 to 0.07.

Going from YCDGHSPEYMLKCL [Phage-955] to YCDGHAQEYMDKCL [Phage-950], the “Phage binding ELISA, Anti-CD28 Fab signal in the presence of CD28” value rises from 0.07 to 0.08.

Compared with YCDGHSEAFMQKCL [Phage-945], YCEGHAPQYIMKCL [Phage-951] is lower in “Phage binding ELISA, Anti-CD28 Fab signal in the presence of CD28” value: 0.07 for the first, 0.06 for the second.

Compared with YCAGHLPEYMGKCL [Phage-946], YCAGHLAIYMSKCL [Phage-947] is higher in “Phage binding ELISA, Anti-CD28 Fab signal in the presence of CD28” value: 0.07 for the first, 0.08 for the second.

YCEGHLEEYMAKCL [Phage-954] was tested, and the “Phage binding ELISA, Anti-CD28 Fab signal in the presence of CD28” value was 0.07.

target: T4, Anti-CD28 Fab (SEQ ID NOs: 696, 697); assay: phage binding ELISA, clonal phage on biotinylated anti-CD28 Fab captured on neutravidin plates;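 further: crude clonal phage supernatants added to wells pretreated with CD28 antigen or blocking buffer only, bound phage detected by HRP-linked anti-M13 antibody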
T4 construct: In the phage ELISA the Fab was biotinylated and captured on neutravidin coated plates
T4 sequence (VH, as listed by the source, chain 1 of 2): as the sequence (VH, as listed by the source, chain 1 of 2) above
T4 sequence (VL, as listed by the source, chain 2 of 2): as the sequence (VL, as listed by the source, chain 2 of 2) above
Procedure: as §1, §2

B5 and B6 are the same in “Anti-CD28 Fab (SEQ ID NOs: 696, 697) signal” value: 1.6 for the first, 1.6 for the second.

First: B7
Second: B8
The “Anti-CD28 Fab (SEQ ID NOs: 696, 697) signal” value of the first is higher: 1.61 for the first, 1.6 for the second.

B9 and B10 are the same in “Anti-CD28 Fab (SEQ ID NOs: 696, 697) signal” value: 1.6 for the first, 1.6 for the second.

B11 and B12 are the same in “Anti-CD28 Fab (SEQ ID NOs: 696, 697) signal” value: 1.6 for the first, 1.6 for the second.

B13 and B14 are the same in “Anti-CD28 Fab (SEQ ID NOs: 696, 697) signal” value: 1.61 for the first, 1.61 for the second.

Compared with B15, B16 is lower in “Anti-CD28 Fab (SEQ ID NOs: 696, 697) signal” value: 1.61 for the first, 1.6 for the second.

In the case of B17, the “Anti-CD28 Fab (SEQ ID NOs: 696, 697) signal” value is reported as 1.59.

target: T4, Anti-CD28 Fab (SEQ ID NOs: 696, 697); assay: phage binding ELISA on captured anti-CD28 Fab, wells pre-incubated with CD28 antigen as competitor;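 further: crude clonal phage supernatants added to wells preloaded with CD28 antigen, bound phage read by HRP-conjugated anti-M13 antibody, control wells got blocking buffer alone without CD28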
Procedure: as §1, §2

Compared with B5, B6 is lower in “Anti-CD28 Fab signal in the presence of CD28” value: 0.1 for the first, 0.08 for the second.

Going from B7 to B8, the “Anti-CD28 Fab signal in the presence of CD28” value rises from 0.06 to 0.1.

Compared with B9, B10 is lower in “Anti-CD28 Fab signal in the presence of CD28” value: 0.09 for the first, 0.06 for the second.

Compared with B11, B12 is lower in “Anti-CD28 Fab signal in the presence of CD28” value: 0.1 for the first, 0.08 for the second.

Going from B13 to B14, the “Anti-CD28 Fab signal in the presence of CD28” value rises from 0.06 to 0.1.

Going from B15 to B16, the “Anti-CD28 Fab signal in the presence of CD28” value rises from 0.06 to 0.08.

In the case of B17, the “Anti-CD28 Fab signal in the presence of CD28” value is reported as 0.07.

target: T3, Anti-CD28 Fab (SEQ ID NOs: 696, 697); assay: phage ELISA; biotinylated anti-CD28 Fab on neutravidin plate, clonal phage supernatant, anti-M13 HRP

First: YCAGHSPQYMEKCL [Phage-956]
Second: YCDGHELKYMLKCL [Phage-952]
The “Phage binding ELISA, Anti-CD28 Fab signal” value of the first is lower: 1.61 for the first, 1.62 for the second.

YCDGHLSEYMSKCL [Phage-948] and YCEGHVTEYMQKCL [Phage-949] are the same in “Phage binding ELISA, Anti-CD28 Fab signal” value: 1.62 for the first, 1.62 for the second.

Going from YCDGHSLEYIGKCL [Phage-944] to YCDGHLLEYKAKCL [Phage-953], the “Phage binding ELISA, Anti-CD28 Fab signal” value falls from 1.63 to 1.62.

First: YCDGHSPEYMLKCL [Phage-955]
Second: YCDGHAQEYMDKCL [Phage-950]
The “Phage binding ELISA, Anti-CD28 Fab signal” value of the first is lower: 1.61 for the first, 1.62 for the second.

Going from YCDGHSEAFMQKCL [Phage-945] to YCEGHAPQYIMKCL [Phage-951], the “Phage binding ELISA, Anti-CD28 Fab signal” value falls from 1.63 to 1.62.

YCAGHLPEYMGKCL [Phage-946] and YCAGHLAIYMSKCL [Phage-947] are the same in “Phage binding ELISA, Anti-CD28 Fab signal” value: 1.63 for the first, 1.63 for the second.

For YCEGHLEEYMAKCL [Phage-954], the “Phage binding ELISA, Anti-CD28 Fab signal” value was 1.62.

target: T5, Anti-CD28 Fab (SEQ ID NOs: 696, 697); assay: phage ELISA; clonal phage supernatant on biotinylated anti-CD28 Fab captured on neutravidin, anti-M13 HRP detection
T5 construct: In the phage ELISA the Fab was biotinylated and captured on neutravidin coated plates
T5 sequence (VH, as listed by the source, chain 1 of 2): as the sequence (VH, as listed by the source, chain 1 of 2) above
T5 sequence (VL, as listed by the source, chain 2 of 2): as the sequence (VL, as listed by the source, chain 2 of 2) above
Procedure: as §1, §2

In the case of YCEGHSWVYMAKCL [Phage-943], the “Anti-CD28 Fab signal (phage binding ELISA)” value is reported as 1.63.

target: T5, Anti-CD28 Fab (SEQ ID NOs: 696, 697); assay: phage ELISA on captured anti-CD28 Fab; competitor: CD28 antigen pre-incubated on the Fab
Procedure: as §1, §2

YCEGHSWVYMAKCL [Phage-943] was tested, and the “Anti-CD28 Fab signal in the presence of CD28 (phage binding ELISA)” value was 0.07.
